This is an account of results in patent publication US6309839.

Where only a bound is given, the exact number is not on record here.

Data set [1] concerns the target T1, gp41 helicase (bacteriophage T4?) (UniProt P04530).
T1 sequence: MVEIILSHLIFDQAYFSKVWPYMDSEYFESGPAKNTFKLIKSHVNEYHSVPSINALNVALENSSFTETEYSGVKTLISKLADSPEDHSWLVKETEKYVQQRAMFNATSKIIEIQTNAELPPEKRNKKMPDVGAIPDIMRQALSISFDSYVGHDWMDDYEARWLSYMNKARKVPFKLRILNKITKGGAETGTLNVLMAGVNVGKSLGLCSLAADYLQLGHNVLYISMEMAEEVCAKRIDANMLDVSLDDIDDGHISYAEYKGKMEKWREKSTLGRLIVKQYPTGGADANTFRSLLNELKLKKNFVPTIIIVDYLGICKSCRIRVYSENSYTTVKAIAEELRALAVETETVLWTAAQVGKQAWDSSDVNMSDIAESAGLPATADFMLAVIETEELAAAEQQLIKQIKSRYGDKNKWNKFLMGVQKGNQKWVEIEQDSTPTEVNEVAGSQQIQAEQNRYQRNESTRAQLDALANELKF
As to conditions: biotin at position 60, streptavidin-bound; streptavidin displacement rate at 4 uM gp41; 5 mM ATP, 12.5 mM Mg(OAc)2, 150 mM KOAc, pH 7.5, 37 C; none without ATP.

The target of data set [2] is T2, Dda helicase (bacteriophage T4?) (UniProt P32270).
T2 sequence: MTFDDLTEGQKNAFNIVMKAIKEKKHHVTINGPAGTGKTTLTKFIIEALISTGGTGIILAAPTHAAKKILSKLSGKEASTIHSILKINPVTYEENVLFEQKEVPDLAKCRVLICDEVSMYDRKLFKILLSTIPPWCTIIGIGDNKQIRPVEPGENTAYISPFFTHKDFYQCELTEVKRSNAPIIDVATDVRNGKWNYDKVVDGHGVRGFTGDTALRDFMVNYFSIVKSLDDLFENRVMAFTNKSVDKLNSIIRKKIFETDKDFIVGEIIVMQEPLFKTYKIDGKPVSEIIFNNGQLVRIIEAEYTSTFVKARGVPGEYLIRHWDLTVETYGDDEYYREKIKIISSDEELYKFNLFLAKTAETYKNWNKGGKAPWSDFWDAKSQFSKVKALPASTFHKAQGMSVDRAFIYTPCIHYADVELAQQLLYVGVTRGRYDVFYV
As to conditions: biotin at position 60, streptavidin-bound; streptavidin displacement rate at 1 uM Dda, preincubated with DNA, 5 mM ATP, Mg2+.

In data set [3] the target is NS3 helicase (full length) (Hepatitis C virus) (UniProt P26663). The note with it: biotin at position 2, streptavidin-bound; streptavidin displaced from 5' end; 10 nM NS3, 100 nM oligonucleotide.
NS3 helicase (full length) (Hepatitis C virus), sequence (P26663 1027-1657): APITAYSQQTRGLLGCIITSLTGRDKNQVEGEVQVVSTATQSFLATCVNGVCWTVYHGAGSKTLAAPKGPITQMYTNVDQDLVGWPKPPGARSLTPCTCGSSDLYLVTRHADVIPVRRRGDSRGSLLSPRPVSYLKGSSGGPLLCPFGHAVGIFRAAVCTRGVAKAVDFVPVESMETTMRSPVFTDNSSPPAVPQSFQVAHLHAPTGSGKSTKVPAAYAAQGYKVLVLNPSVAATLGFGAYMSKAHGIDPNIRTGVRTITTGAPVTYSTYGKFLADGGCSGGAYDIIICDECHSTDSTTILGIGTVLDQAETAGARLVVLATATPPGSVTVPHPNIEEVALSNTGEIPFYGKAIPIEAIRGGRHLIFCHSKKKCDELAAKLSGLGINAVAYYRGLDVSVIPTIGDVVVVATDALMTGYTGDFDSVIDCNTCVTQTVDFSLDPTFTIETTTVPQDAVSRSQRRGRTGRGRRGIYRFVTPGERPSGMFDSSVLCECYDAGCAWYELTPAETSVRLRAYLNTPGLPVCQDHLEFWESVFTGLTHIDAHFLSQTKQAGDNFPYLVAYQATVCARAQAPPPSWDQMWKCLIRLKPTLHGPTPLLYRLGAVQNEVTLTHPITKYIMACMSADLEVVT

Turning to 3'-bio-61-mer (called 62-mer in text), the activity was 0.17 min⁻¹ in data set [1] and 7.9 s⁻¹ in data set [2]. In data set [3], 5'-bio-60-mer had an activity (fold over spontaneous dissociation) of over 100.
